Values belong to the binder of their own block, whether it stands above or below them. Square brackets hold non-standard residues; d marks the D form. Primed or numbered codes have the meaning given here. Ends that are not written are not given here. * marks the point of attachment. PEG3′ = PEG linker of three ethylene glycol repeat units; Biotin = O=C1N[C@H]2[C@H](CS[C@H]2CCCCC(=O)*)N1; Lys(N3) = [N-]=[N+]=NCCCC[C@H](N)C(=O)O; Pra = C#CC[C@H](N)C(=O)O
Tests used:
[1] = biological target: His-tagged CD8α human recombinant protein (TP760215, Origene) (human) (UniProt P01732); assay: sandwich ELISA; biotinylated ligand on NeutrAvidin plate, His-tagged CD8α titrated, anti-His-AP detection
[2] = biological target: His-tagged CD8α human recombinant protein (MBS968456, MyBioSource) (human) (UniProt P01732); assay: sandwich ELISA; biotinylated biligand on NeutrAvidin plate, His-tagged CD8α titrated
[3] = biological target: His-tagged CD8α human recombinant protein (MBS968456, MyBioSource) (human) (UniProt P01732); assay: sandwich ELISA; biotinylated biligand on NeutrAvidin plate, His-tagged CD8α titrated, anti-His-AP detection
[4] = biological target: His-tagged CD8α human recombinant protein (MBS968456, MyBioSource) (human) (UniProt P01732); assay: sandwich ELISA; biligand against its single macrocycles Cy(HGRGH) and Cy(wplrf)
[5] = biological target: His-tagged CD8α human recombinant protein (MBS968456, MyBioSource) (human) (UniProt P01732); assay: ELISA with His-tagged CD8α human recombinant protein
[6] = biological target: His-tagged CD8α human recombinant protein (TP760215, Origene) (human) (UniProt P01732); assay: sandwich ELISA; range told of the group, upper end tied to Cy(rwfnv) by the legend of FIG. 5

Chain of His-tagged CD8α human recombinant protein (MBS968456, MyBioSource) (human) (P01732 22-182 limits assumed): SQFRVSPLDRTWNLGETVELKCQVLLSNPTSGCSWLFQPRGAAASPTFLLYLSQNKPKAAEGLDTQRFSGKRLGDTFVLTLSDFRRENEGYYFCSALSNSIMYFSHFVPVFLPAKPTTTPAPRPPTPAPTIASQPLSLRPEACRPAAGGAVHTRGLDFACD
Chain of His-tagged CD8α human recombinant protein (TP760215, Origene) (human) (P01732 22-182 limits assumed): as above

EC50 [1]: 56 nM
B1: biotin-PEG3-Cy(ffrly) (peptide)
peptide: FFRLY
modifications: all residues D-amino acids (lower case); N-terminal biotin-PEG3; triazole-cyclized (Cy) between flanking Pra and Az4

EC50 [1]: 16 nM
B2: biotin-PEG3-Cy(wplrf) (peptide)
peptide: WPLRF
modifications: all residues D-amino acids (lower case); N-terminal biotin-PEG3; triazole-cyclized (Cy) between flanking Pra and Az4

fold below the affinity of the optimal linker (PEG5) biligand [2]: 10 fold
B3: Biotin-PEG3-Cy(HGRGH)-PEG6-Cy(wplrf) (peptide)
peptide 1: {Biotin-PEG3′}-[Pra]HGRGH
peptide 2: [Pra][dW][dP][dL][dR][dF]
modifications: not fully specified (some residues, C-terminus); printed as Biotin-PEG3-Cy(HGRGH)-PEG6-Cy(wplrf); numbers in words are those of the source; also: joined C-terminally through a PEG6 linker to the second macrocycle, triazole to a chain's N/C-terminus

fold below the affinity of the optimal linker (PEG5) biligand [2]: 10 fold
B4: Biotin-PEG3-Cy(HGRGH)-PEG3-Cy(wplrf) (peptide)
peptide 1: {Biotin-PEG3′}-[Pra]HGRGH
peptide 2: [Pra][dW][dP][dL][dR][dF]
modifications: not fully specified (some residues, C-terminus); numbers in words are those of the source; also: joined C-terminally through a PEG3 linker to the second macrocycle, triazole to a chain's N/C-terminus

EC50 [3]: 0.2 nM | fold improvement in affinity relative to the individual PCC macrocyclic ligands [4]: > 30 fold
B5: Biotin-PEG3-Cy(HGRGH)-PEG5-Cy(wplrf) (peptide)
peptide 1: {Biotin-PEG3′}-[Pra]HGRGH
peptide 2: [Pra][dW][dP][dL][dR][dF]
modifications: not fully specified (some residues, C-terminus); printed as Biotin-PEG3-Cy(HGRGH)-PEG5-Cy(wplrf); numbers in words are those of the source; also: joined C-terminally through a PEG5 linker to the second macrocycle, triazole to a chain's N/C-terminus

EC50 [5]: 0.058 nM
B6: Cy(Ghtwp)-Lys(Biotin)-PEG1-Cy(hGrGh) (peptide)
peptide 1: [Pra]G[dH][dT][dW][dP]
peptide 2: [Pra][dH]G[dR]G[dH][Lys(N3)]
modifications: not fully specified (C-terminus); printed as Cy(Ghtwp)-Lys(Biotin)-PEG1-Cy(hGrGh); also: triazole to a chain's N/C-terminus, triazole to a chain's N/C-terminus

fold below the affinity of the optimal linker (PEG5) biligand [2]: 10 fold
B7: Biotin-PEG3-Cy(HGRGH)-PEG7-Cy(wplrf) (peptide)
peptide 1: {Biotin-PEG3′}-[Pra]HGRGH
peptide 2: [Pra][dW][dP][dL][dR][dF]
modifications: not fully specified (some residues, C-terminus); printed as Biotin-PEG3-Cy(HGRGH)-PEG7-Cy(wplrf); numbers in words are those of the source; also: joined C-terminally through a PEG7 linker to the second macrocycle, triazole to a chain's N/C-terminus

EC50 [1]: 9 nM
B8: biotin-PEG3-Cy(wsvnv) (peptide)
peptide: WSVNV
modifications: all residues D-amino acids (lower case); N-terminal biotin-PEG3; triazole-cyclized (Cy) between flanking Pra and Az4

fold below the affinity of the optimal linker (PEG5) biligand [2]: 10 fold
B9: Biotin-PEG3-Cy(HGRGH)-PEG4-Cy(wplrf) (peptide)
peptide 1: {Biotin-PEG3′}-[Pra]HGRGH
peptide 2: [Pra][dW][dP][dL][dR][dF]
modifications: not fully specified (some residues, C-terminus); printed as Biotin-PEG3-Cy(HGRGH)-PEG4-Cy(wplrf); numbers in words are those of the source; also: joined C-terminally through a PEG4 linker to the second macrocycle, triazole to a chain's N/C-terminus

EC50 [1]: 62 nM | EC50 [6]: 62 nM
B10: biotin-PEG3-Cy(rwfnv) (peptide)
peptide: RWFNV
modifications: all residues D-amino acids (lower case); N-terminal biotin-PEG3; triazole-cyclized (Cy) between flanking Pra and Az4

— patent US20170319722A1
